Reference: article PMC6013450, “A convenient protocol for generating giant unilamellar vesicles containing SNARE proteins using electroformation” (Scientific Reports, 2018)

Biological target: T1, syntaxin-1A (183–288) (Rattus norvegicus, UniProt P32851 183-288)
T1 construct: syntaxin-1A, Rattus norvegicus, residues 183-288, contains the transmembrane region; source: E. coli BL21 (DE3), purified (Ni-NTA, ion exchange MonoQ, buffer with 1% CHAPS)
Assay: ion exchange chromatography of the assembled complex; monomers mixed overnight at 4 °C; complex purified on a MonoQ column in a buffer containing CHAPS
Details: both partners purified

T1 sequence (P32851 183-288): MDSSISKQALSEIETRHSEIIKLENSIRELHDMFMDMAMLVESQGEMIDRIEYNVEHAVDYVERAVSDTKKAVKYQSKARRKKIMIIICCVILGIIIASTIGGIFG

B1: synaptobrevin-2 fragment (49–96) (domain or fragment, Rattus norvegicus, UniProt P63045 49-96, looked up)
chain: NVDKVLERDQKLSELDDRADALQAGASQFETSAAKLKRKYWWKNLKMM
notes: synaptobrevin-2, Rattus norvegicus, residues 49-96; also called synaptobrevin fragment 49–96; source: E. coli BL21 (DE3), purified (Ni-NTA, ion exchange MonoS)
B1: binds.
